Experimental data from article PMC6629373, “Cryo-EM structure of the rhodopsin-Gαi-βγ complex reveals binding of the rhodopsin C-terminal tail to the gβ subunit” (eLife, 2019).

Molecular target: T1, human Gαi subunit (Gαi1) with N-terminal deca-histidine tag (human, UniProt P63096 1-354)
T1 construct: Gαi1 subunit, human; TEV protease-cleavable tag; source: E. coli BL21 (DE3), purified; not shown: His10, N-terminal, kept
Assay: cryo-EM structure; rhodopsin-Gi-Fab16 complex; rhodopsin on 1D4 resin mixed with 10xHis-tagged Gi, light-activated, with apyrase, in LMNG; Ni-NTA; Fab16 added in molar excess (1:1.4); SEC in 20 mM HEPES pH 7.5, 150 mM NaCl; Titan Krios, K2; nominal resolution 4.38 Å
Settings: both partners purified

B1: bovine rhodopsin N2C/M257Y/D282C (stabilized, constitutively active mutant) (receptor, UniProt P02699 1-348, looked up)
chain: MCGTEGPNFYVPFSNKTGVVRSPFEAPQYYLAEPWQFSMLAAYMFLLIMLGFPINFLTLYVTVQHKKLRTPLNYILLNLAVADLFMVFGGFTTTLYTSLHGYFVFGPTGCNLEGFFATLGGEIALWSLVVLAIERYVVVCKPMSNFRFGENHAIMGVAFTWVMALACAAPPLVGWSRYIPEGMQCSCGIDYYTPHEETNNESFVIYMFVVHFIIPLIVIFFCYGQLVFTVKEAAAQQQESATTQKAEKEVTRMVIIYVIAFLICWLPYAGVAFYIFTHQGSCFGPIFMTIPAFFAKTSAVYNPVIYIMMNKQFRNCMVTTLCCGKNPLGDDEASTTVSKTETSQVAPA
modifications: palmitoylation of Cys residues at positions 322 and 323; reconstituted with 9-cis or 11-cis retinal and light-activated
notes: rhodopsin, bovine, mutant N2C/M257Y/D282C; Residues 324-335 of the C-tail were modelled in the map; also called the receptor
- binding result: binds
